What is called EC50 is the concentration needed to bring the measured effect to its halfway point. Usually Kd stands for a measure of binding affinity in units of concentration. As usually defined, the IC50 is the concentration that gives 50% inhibition. Read a low IC50 as inhibition by little substance.

Changes are numbered by the printed parent chain. Names and notes keep the numbering of the source.

The text below walks through data of patent publication US20240166737A1 (Janssen / Centocor, published 2024).

In experiment [1] the target is T1, CD3 epsilon on human T-cells (human, UniProt P07766 23-207). Nature of the experiment: cell-based or functional assay.
T1 sequence (P07766 23-207 limits assumed): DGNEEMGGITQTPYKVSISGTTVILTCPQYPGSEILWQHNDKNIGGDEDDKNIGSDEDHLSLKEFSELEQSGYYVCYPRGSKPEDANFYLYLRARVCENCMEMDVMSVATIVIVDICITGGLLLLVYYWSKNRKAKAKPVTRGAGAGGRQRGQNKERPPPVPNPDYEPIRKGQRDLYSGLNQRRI
Experiment [2] deals with T1, CD3 epsilon on human T-cells. Nature of the experiment: T-cell binding assay, FIG. 15.
Experiment [3] has the same target. Kind of experiment: T cell binding.
The target in experiment [4] is T2, MSNW10, recombinant full length human MSLN (human, UniProt Q13421 296-598).
T2 construct: also called MSNW10.002; FL-MSLN
T2 sequence (Q13421 other isoform, or with tags, fused parts or gaps limits assumed): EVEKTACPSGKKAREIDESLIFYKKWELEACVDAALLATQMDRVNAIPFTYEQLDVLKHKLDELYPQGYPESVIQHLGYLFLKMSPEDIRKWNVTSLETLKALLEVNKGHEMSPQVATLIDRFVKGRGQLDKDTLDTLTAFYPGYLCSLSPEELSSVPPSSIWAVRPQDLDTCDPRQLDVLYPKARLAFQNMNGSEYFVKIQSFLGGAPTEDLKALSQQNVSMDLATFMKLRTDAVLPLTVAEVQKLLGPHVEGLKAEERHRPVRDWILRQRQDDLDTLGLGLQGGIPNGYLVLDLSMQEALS
Kind of experiment: SPR, additional experiments. A general note: Surface plasmon resonance follows binding to a sensor surface in real time, without labels.

The target of experiment [5] is T3, MSNW11, recombinant soluble (shed) MSLN lacking the C-terminal 7 AAs (human, UniProt Q13421 296-591).
T3 construct: domain: soluble MSLN lacking the C-terminal 7 AAs; also called MSNW11.002; soluble MSLN
T3 sequence (Q13421 other isoform, or with tags, fused parts or gaps limits assumed): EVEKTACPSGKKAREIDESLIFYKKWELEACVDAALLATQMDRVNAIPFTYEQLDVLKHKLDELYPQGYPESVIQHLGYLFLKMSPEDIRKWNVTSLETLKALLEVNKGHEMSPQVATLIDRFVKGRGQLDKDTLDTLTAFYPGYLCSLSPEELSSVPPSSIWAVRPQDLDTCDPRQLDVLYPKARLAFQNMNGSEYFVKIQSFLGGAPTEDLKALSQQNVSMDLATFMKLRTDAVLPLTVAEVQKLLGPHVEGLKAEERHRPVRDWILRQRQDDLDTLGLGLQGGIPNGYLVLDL
Nature of the experiment: H838 cell binding with shed MSLN (MSNW11) added. The text has this: Table 16 lists the immunization campaigns, antigens used, and number of clones returned at each stage of screening. Clones from which antibody sequences were successfully recovered were first screened for binding to recombinant full length human MSLN (MSNW10) and H838 cells that express MSLN on the cell surface. Binders were further screened for binding to cells in the presence of recombinant soluble MSLN lacking the C-terminal 7 AAs (MSNW11). This form of recombinant MSLN represented the product of cleavage at the closest cleavage site to the C-terminus known at the time, therefore, it theoretically represented the longest form of shed MSLN. The final concentration of shed MSLN in the assays was 100 nM.

The target of experiment [6] is T2, MSNW10, recombinant full length human …. Kind of experiment: SPR, recombinant full-length human MSLN.
For experiment [7], the target named is T4, 14 AA stub (a.a. 290-303 of SEQ ID NO: 247) (human).
T4 peptide: GYLVLDLSMQEALS
Nature of the experiment: SPR, mAb captured, peptide injected. How it is done:
(§1) The binding was assessed by SPR. Briefly, GAH-Fc was used to capture mAbs on C4 sensor chip followed by antigen injection starting at 30 nM (14 amino acid stub), 100 nM (10-13 amino acid stubs), or 1000 nM (7-9 amino acid stubs) progressing in a 3-fold dilution series in single cycle kinetics mode. HBSP+0.01% BSA was used in the assay.

Experiment [8] deals with T5, 13 AA stub (a.a. 291-303 of SEQ ID NO: 247) (human).
T5 peptide: YLVLDLSMQEALS
Kind of experiment: SPR, mAb captured, peptide injected. How it is done:
as §1

Experiment [9] addresses T6, 12 AA stub region peptide LVLDLSMQEALS (human).
T6 construct: free N-terminus; also called 12 AA Peptide
T6 peptide: LVLDLSMQEALS
Kind of experiment: SPR, mAb captured, peptide injected. How it is done:
as §1

Experiment [10] has as its target T7, 11 AA stub (a.a. 293-303 of SEQ ID NO: 247) (human).
T7 peptide: VLDLSMQEALS
Kind of experiment: SPR, mAb captured, peptide injected. How it is done:
as §1

Experiment [11] has as its target T8, 10 AA stub (a.a. 294-303 of SEQ ID NO: 247) (human).
T8 peptide: LDLSMQEALS
Kind of experiment: SPR, mAb captured, peptide injected. How it is done: as §1

The target in experiment [12] is T9, 9 AA stub (a.a. 295-303 of SEQ ID NO: 247) (human).
T9 peptide: DLSMQEALS
Nature of the experiment: SPR, mAb captured, peptide injected. How it is done:
as §1

In experiment [13] the target is T10, 7 AA stub (a.a. 297-303 of SEQ ID NO: 247) (human).
T10 peptide: SMQEALS
Nature of the experiment: SPR, mAb captured, peptide injected. How it is done: as §1

For experiment [14], the target named is T11, 8 AA stub (a.a. 296-303 of SEQ ID NO: 247) (human).
T11 construct: also called 8 AA Peptide; peptide of the last 8 C-terminal amino acids
T11 peptide: LSMQEALS
Nature of the experiment: competition of OVCAR8 cell binding by the peptide.

Experiment [15] has as its target T12, human MSLN on the cell surface (human, UniProt Q13421 296-598).
T12 construct: on cells stands the processed GPI-anchored 40 kDa MSLN; also called membrane MSLN; MSLN on H838, OVCAR-8 (OVCAR8), OVCAR-8 K1/C8, SK-OV-3 cells
Nature of the experiment: high content imaging, surface staining of OVCAR8 cells. How it is done:
OVCAR8 cells were cultured in RPMI 1640 medium supplemented with 10% FCS, 1% L-glutamine and 1% Gentamycin and seeded in Greiner CELLSTAR plate one day before experiment. 24 h after seeding, antibody mixture was prepared by diluting MSLN and control antibodies in Table 21 in full media containing CellMask™ Deep Red Plasma Membrane Stain (ThermoFisher, C10046) in 12 concentrations each with 3 folds dilution starting from 20 μg/ml and 20 μl of which were added directly to the cells in 20 μl. Antibodies were allowed for binding to the cell surface for 2h inside the incubator (37°) C. and the surface bound antibodies were fixed for 15 min at RT by directly adding 30 ul of 10% Formaldehyde (04018-1, Polysciences). Afterwards residual Formaldehyde was removed by washing the cells twice with PBS and the primary antibodies were stained with secondary antibodies (Alexa Fluor 488 goat anti-human IgG, Invitrogen, A11013) complemented with Hoechst 33342 (H3570, ThermoFisher) and HCS CellMask™ Deep Red Stain (ThermoFisher, H32721) in PBS for 1h at RT. After removing unbound antibodies and other dyes by washing the cells 3 times with PBS cells were imaged on the CellVoyager 7000 (Yokogawa, Tokyo, Japan) using a 40×/0.95 objective. Of each well, 9 fields were imaged. Image analysis was performed with Acapella (PerkinElmer, Waltham, MA, USA) and the results stored in Phaedra (OpenAnalytics, Antwerp, Belgium). Data analysis was done in R (www.r-project.org).
The data was then fitted using the four-parameter logistic using least-squares regression, keeping the lower boundary fixed at 0.

In experiment [16] the target is T6, 12 AA stub region peptide LVLDLSMQEALS
Nature of the experiment: SPR.

B1: MNC3B199 (bispecific antibody, V domains shown, not shown: a dimerising Fc or GST; small tags and cut ends)
VH 1: QVQLVESGPGQVKPSQTLSLTCAISGDSVSSNSAAWNWIRQSPSRGLEWLGRTYYRSKWYNDYAVSVKSRITINPDTSKNQFSLQLNSVTPEDTAVYYCARRDYSSGGFDYWGQGTTVTVSS
VL 1: not shown
VH 2: QVQLVQSGAEVKKPGSSVKVSCKASGYTFTRSTMHWVKQAPGQGLEWMGYINPSSAYTNYNQKFQGRVTLTADKSTSTAYMELSSLRSEDTAVYYCASPQVHYDYAGFPYWGQGTLVTVSS
VL 2: EIVLTQSPATLSASPGERVTLSCSASSSVSYMNWYQQKPGQAPRRLIYDSSKLASGVPARFSGSGSGRDYTLTISSLEPEDFAVYYCQQWSRNPPTFGGGTKVEIK
With B1, in experiment [1], the “AC90 [nM], cytotoxicity, 1:1 E:T, 72 hours” value is 7.32 nM; the “Max. Activity, cytotoxicity, 1:1 E:T, 72 hours” value was found to be 85%; the “qAC50 [nM], cytotoxicity, 1:1 E:T, 72 hours” value is 1.19 nM.

B2: MNC3B187 (bispecific antibody)
scFv: EVQLVESGGGLVKPGGSLRLSCAASGFTFSRYNMNWVRQAPGKGLEWVSSISTSSNYIYYADSVKGRFTFSRDNAKNSLDLQMSGLRAEDTAIYYCTRGWGPFDYWGQGTLVTVSSGGSEGKSSGSGSESKSTGGSDIQMTQSPSSLSASVGDRVTITCRARQSIGTAIHWYQQKPGKAPKLLIKYASESISGVPSRFSGSGSGTDFTLTISSLQPEDFATYYCQQSGSWPYTFGQGTKLEIK
VH: B1 VH 1
VL: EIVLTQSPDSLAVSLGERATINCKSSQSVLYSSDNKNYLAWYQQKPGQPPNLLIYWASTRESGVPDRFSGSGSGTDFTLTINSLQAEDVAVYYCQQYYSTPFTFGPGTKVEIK
notes: Bipod: MSNB457 Fab x CD3W245 HL scFv-Fc; also called CD3W245 HL containing Bipod
For the molecule B2, in [1], the “AC90 [nM], cytotoxicity, 1:1 E:T, 72 hours” value came to 0.016 nM; the “Max. Activity, cytotoxicity, 1:1 E:T, 72 hours” value was found to be 88%; the “qAC50 [nM], cytotoxicity, 1:1 E:T, 72 hours” value was found to be 0.0035 nM. The molecule further showed an EC50 in [2] of 2 nM.

B3: CD3B2030-N106A (scFv, V domains shown)
VH: B1 VH 2 with M48I
VL: B1 VL 2 with L46W
B3 returned an EC50 in [3] of 50 to 100 nM.

B4: CD3W245 HL formatted in the 2+1 format (bispecific antibody)
scFv: B2 scFv
VH: B1 VH 1
VL: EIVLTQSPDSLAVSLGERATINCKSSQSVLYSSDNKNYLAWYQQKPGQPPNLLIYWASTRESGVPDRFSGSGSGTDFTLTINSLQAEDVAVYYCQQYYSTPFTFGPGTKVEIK
notes: two MSLN targeting (MSNB457) Fabs and one CD3 scFv set between Fab and Fc of one heavy chain; also called CD3W245 HL 2+1
Molecule B4 had an EC50 in experiment [2] of 44 nM.

B5: CD3B2051-N106A (scFv, V domains shown)
VH: B1 VH 2
VL: B1 VL 2
notes: CD3 targeting scFv
For B5, the EC50 in experiment [3] lay within 50 to 100 nM.

B6: MSLNB590 (antibody, V domains shown)
VH: QVQLQQSGPGLVKPSQTLSLTCAISGDSVSSTRAAWNWIRQSPSRGLEWLGRTYYRSKWYNDYTVSVKSRITINPDTSKNQFSLHLNSVTPEDSAVYFCARGNVGRVDFWGQGTLVTVSS
VL: EIVMTQSPLSLPVTPGEPASISCRSSQSLLHSDGYNYLDWYLQKPGQSPQLLIYLGSNRASGVPDRFSGSGSDTDFTLKISRVEAEDVGVYYCMQGLRTPLTFGPGTKLEIK
notes: mAb; also called MSNB590
Regarding B6, the Kd in experiment [4] was 1.2 nM. For the same molecule, the binding result in [5] is listed as “no binding (tested: 100 nM)”.

B7: MSNB133 (antibody, V domains shown)
VH: QVQLQQSGPGLVKPSQTLSLTCAISGDSVSSNRVAWNWIRQSPSRGLEWLGRTYYRSKWYNDFALSVKSRININADTSKSQFSLQLNSVTPEDTAVYYCARGIVGALDYWGQGTTVTVSS
VL: B6 VL with E1D, H31F, D33N, Y37S, G71E, D73G, G96A, R98Q, L101F
notes: mAb
As for B7, the Kd in [6] came out at 3.7 nM. In [5], the binding result was “no binding (tested: 100 nM)”.

B8: MSLNB570 (antibody, V domains shown)
VH: QVQLQQSGPGLVKPSQTLSLTCAISGDSVSSTSVAWNWIRQSPSGGLEWLGRTYYRSKWYNDYALSVKSRMTINPDTASNQFSLQLNSVTPEDTAVYYCSRGIVGALDYWGQGTLVTVSS
VL: DIVMTQTPLSLPVTPGGPASISCRSSQSLMYSNGYNHLDWYLQKPGQSPQFLIHLGSNRVSGVPDRFSGSGSGTDFTLKISRVEAEDVGVYYCMQALRTPYTFGQGTKVDIK
notes: mAb; also called MSNB570
For the molecule B8, the Kd in [7] amounted to 3.67 nM; in experiment [8], 4.37 nM; in [9], 7.97 nM; in experiment [6], 3.6 nM. The binding result is given as “no binding (tested: 100 nM)” in experiment [10]; “no binding (tested: 100 nM)” in experiment [11]; “no binding (tested: 1000 nM)” in experiment [12]; “no binding (tested: 1000 nM)” in [13]; “no binding (tested: 100 nM)” in experiment [5]; “no binding” in experiment [14]. The IC50 in experiment [15] was 0.0728 µg/mL. For the same molecule, the “Maximum Value (arbitrary units)” value in [15] is 1.39e+07 arbitrary units.

B9: MSNB459 (antibody, V domains shown)
VH: B7 VH with Q1E, Q5V, R33S, F63Y, N72T, A75P, S80N, I103V, L107V, T115L
VL: B6 VL with E1D, S28N, H31Y, D33N, Y37S, D73G, P105G, L109V
notes: mAb
Take B9: the Kd in experiment [6] stood at 3.5 nM. The binding result in experiment [5] is reported as “no binding (tested: 100 nM)”.

B10: MSLNB592 (antibody, V domains shown)
VH: B8 VH
VL: B8 VL with T7S, G17E, V60A, D110E
notes: mAb; also called MSNB592
For B10, in experiment [4], the Kd came to 0.9 nM. The binding result in experiment [5] is “no binding (tested: 100 nM)”.

B11: MSLNB571 (antibody, V domains shown)
VH: B8 VH with T53I
VL: B8 VL
notes: mAb; also called MSNB571
B11: in experiment [16], the binding result was “binds”. For the same molecule, the Kd in experiment [6] is 1.8 nM. Further, the binding result in experiment [5] is “no binding (tested: 100 nM)”. In experiment [15], the IC50 stood at 0.0735 µg/mL and the “Maximum Value (arbitrary units)” value came to 1.46e+07 arbitrary units.
